Results published in patent US20080207488A1, “Method for Detecting Peptides Comprising a Cross-B Structure” (priority 2005, published 2008).

What was measured:
[1] = Stability testing of biopharmaceuticals under denaturing conditions (ThT fluorescence, tPA activation); assay type: physicochemical; details: ThT at 25 μg/mL, tPA activation at 100 μg/mL
Procedure: To mimic accelerated stability testing several therapeutics were exposed to denaturing conditions and assayed for amyloid-like properties before and after treatment by tPA activation assay at 100 μg/mL protein and ThT fluorescence enhancement assay at 25 μg/mL protein. For this purpose, 5 mg/mL Glucagon (Glucagen; Novo Nordisk Farma B.V., Alphen aan de Rijn, The Netherlands) was incubated at 37° C. in 0.01 M HCl for 48 hours. One mg/mL Etanercept (Enbrel; Wyeth Pharmaceuticals B.V., Hoofddorp, The Netherlands) in 67 mM sodium phosphate buffer, 100 mM NaCl pH 7.0 was gradually heated from 30° C. to 85° C. over a period of 12 minutes and afterwards cooled to 4° C. for 5 minutes, this treatment was repeated 4 times. Abciximab (Reopro; Centocor B.V., Leiden, The Netherlands) and Infliximab (Remicade; Schering-Plough B.V., Utrecht, The Netherlands) were incubated at 65° C. for 16 and 72 hours, respectively.

[2] = ThT fluorescence of LPS-protein mixtures; assay type: physicochemical; details: for ThT fluorescence enhancement vs protein in buffer only: 1 mg ml^−1 protein
Procedure: Fluorescence of ThT-protein/peptide adducts was measured as follows. […] Fluorescence was measured at 485 nm upon excitation at 435 nm. Background signals from buffer, buffer with ThT and protein/peptide solution without ThT were subtracted from corresponding measurements with protein solution incubated with ThT. […] Fluorescence was measured in triplicate on a Hitachi F-4500 fluorescence spectrophotometer (Ltd., Tokyo, Japan).
Subsequently, the ability to enhance ThT fluorescence was determined with 40× diluted solution, as described above. […]

| Substance | amyloid-like properties after exposure to harsh denaturing conditions (low pH, heat) [1] | ThT fluorescence enhancement ([2]; 200 μg ml^−1 LPS (FIG. 4D, E)) | ThT fluorescence enhancement ([2]; 400 μg ml^−1 LPS (FIG. 4D, E)) | ThT fluorescence enhancement ([2]; 600 μg ml^−1 LPS (FIG. 4D, E)) | ThT fluorescence enhancement ([2]; 1 mg ml^−1 protein exposed to 600 μg ml^−1 LPS (FIG. 4C)) | ThT fluorescence enhancement vs protein in buffer only ([2]; 10 μg ml^−1 LPS (FIG. 4B)) | ThT fluorescence enhancement vs protein in buffer only ([2]; 25 μg ml^−1 LPS (FIG. 4B)) | ThT fluorescence enhancement vs protein in buffer only ([2]; 100 μg ml^−1 LPS (FIG. 4B)) | ThT fluorescence enhancement vs protein in buffer only ([2]; 200 μg ml^−1 LPS (FIG. 4B)) | ThT fluorescence enhancement vs protein in buffer only ([2]; 600 μg ml^−1 LPS (FIG. 4B)) | ThT fluorescence enhancement vs protein in buffer only ([2]; 1200 μg ml^−1 LPS (FIG. 4B)) |
| --- | --- | --- | --- | --- | --- | --- | --- | --- | --- | --- | --- |
| Abciximab: abciximab, an inhibitor of blood platelet aggregation (ReoPro, Centocor) | amyloid-like properties are adopted |  |  |  |  |  |  |  |  |  |  |
| lysozyme: chicken egg-white lysozyme |  | approximately 5 times | ~11 times | ~18 times | approximately 10 times | 1.1 times | 1.3 times | 1.6 times | 2.3 times | 5.7 times | 13.1 times |
